Test results reported in patent US20240116985A1, “STAPLED PEPTIDES AND METHODS THEREOF” (priority 2020, published 2024).
Starred links: 1 amine or outer side, 2 acyl side, 3 side chain; linkers in the order of their positions; H or OH if unused. Positions of bridges follow the written chain, without caps; N, C: chain ends. Non-standard residues stand in square brackets, D forms with d. Primed or numbered codes have the meaning given here. *: point of attachment. (SO2MorphCH2)TriAzDap = (S)-2-amino-3-(4-((1,1-dioxidothiomorpholino)methyl)-1H-1,2,3-triazol-1-yl)propanoic acid, O=C([C@H](Cn1cc(CN2CCS(=O)(=O)CC2)nn1)N[*:1])[*:2]; (CH2Ppz)TriAzDap = (S)-2-amino-3-(4-(piperazin-1-ylmethyl)-1H-1,2,3-triazol-1-yl)propanoic acid, O=C([C@H](Cn1cc(CN2CCN([*:3])CC2)nn1)N[*:1])[*:2]; PyrS2(3) = (S)-3-amino-1-((pent-4-en-1-yloxy)carbonyl)pyrrolidine-3-carboxylic acid, stapling residue, C=CCCCOC(=O)N1CC[C@@](N[*:1])(C(=O)[*:2])C1; PyrS2″ = (S)-3-amino-1-((pent-4-en-1-yloxy)carbonyl)pyrrolidine-3-carboxylic acid (stapling residue), C=CCCCOC(=O)N1CC[C@@](N[*:1])(C(=O)[*:2])C1; (CH2NMe2)TriAzDap = (S)-2-amino-3-(4-((dimethylamino)methyl)-1H-1,2,3-triazol-1-yl)propanoic acid, CN(C)Cc1cn(C[C@H](N[*:1])C(=O)[*:2])nn1; (MorphCH2)TriAzDap = (S)-2-amino-3-(4-(morpholinomethyl)-1H-1,2,3-triazol-1-yl)propanoic acid, O=C([C@H](Cn1cc(CN2CCOCC2)nn1)N[*:1])[*:2]; B5(18) = 2,2-bis(4-pentenyl)glycine (2-amino-2-(pent-4-en-1-yl)hept-6-enoic acid), stitching residue, C=CCCCC(CCCC=C)(N[*:1])C(=O)[*:2]; B5(4) = 2,2-bis(4-pentenyl)glycine = 2-amino-2-(pent-4-en-1-yl)hept-6-enoic acid (stitching residue), C=CCCCC(CCCC=C)(N[*:1])C(=O)[*:2]; B5(5) = 2,2-bis(4-pentenyl)glycine, 2-amino-2-(pent-4-en-1-yl)hept-6-enoic acid (stitching residue), C=CCCCC(CCCC=C)(N[*:1])C(=O)[*:2]; TfeGA = (S)-2-amino-3-((carboxymethyl)(2,2,2-trifluoroethyl)amino)propanoic acid, O=C([C@H](CN(CC(=O)[*:3])CC(F)(F)F)N[*:1])[*:2]; PyrS2 = (S)-3-amino-1-((pent-4-en-1-yloxy)carbonyl)pyrrolidine-3-carboxylic acid, C=CCCCOC(=O)N1CC[C@@](N[*:1])(C(=O)[*:2])C1; PyrS = (S)-1-((allyloxy)carbonyl)-3-aminopyrrolidine-3-carboxylic acid, C=CCOC(=O)N1CC[C@@](N[*:1])(C(=O)[*:2])C1; MorphAsn = (S)-2-amino-4-morpholino-4-oxobutanoic acid, O=C(C[C@H](N[*:1])C(=O)[*:2])N1CCOCC1; B5(3) = 2,2-bis(4-pentenyl)glycine (stitching residue), C=CCCCC(CCCC=C)(N[*:1])C(=O)[*:2]; B5 = 2-amino-2-(pent-4-en-1-yl)hept-6-enoic acid, C=CCCCC(CCCC=C)(N[*:1])C(=O)[*:2]; B6 = 2-amino-2-(hex-5-en-1-yl)oct-7-enoic acid, C=CCCCCC(CCCCC=C)(N[*:1])C(=O)[*:2]; Me2Asn = listed as N4-methyl-L-asparagine, CNC(=O)C[C@H](N[*:1])C(=O)[*:2]; MeAsn = N4-methyl-L-asparagine, CNC(=O)C[C@H](N[*:1])C(=O)[*:2]; MeGln = N5-methyl-L-glutamine, CNC(=O)CC[C@H](N[*:1])C(=O)[*:2]; Phe(3-COOH) = N[C@@H](Cc1cccc(C(=O)O)c1)C(=O)O; Phe(2-CF3) = N[C@@H](Cc1ccccc1C(F)(F)F)C(=O)O; Phe(2-Cl) = N[C@@H](Cc1ccccc1Cl)C(=O)O; Phe(4-Me) = Cc1ccc(C[C@H](N)C(=O)O)cc1; 2Nal = N[C@@H](Cc1ccc2ccccc2c1)C(=O)O; Phe(2-Me) = Cc1ccccc1C[C@H](N)C(=O)O; Bta = N[C@@H](Cc1csc2ccccc12)C(=O)O; Isobutyloxycarbonyl = CC(C)COC(=O)*; αAllylPro = C=CC[C@@]1(C(=O)O)CCCN1; tBuAla = CC(C)(C)C[C@H](N)C(=O)O; 3Thi = N[C@@H](Cc1ccsc1)C(=O)O; Cha = N[C@@H](CC1CCCCC1)C(=O)O; S8 = C=CCCCCCC[C@](C)(N)C(=O)O; Butoxycarbonyl = CCCCOC(=O)*; 4ClBztA = not defined here; hSer = N[C@@H](CCO)C(=O)O; Ac5c = NC1(C(=O)O)CCCC1; Ac3c = NC1(C(=O)O)CC1; Aib = CC(C)(N)C(=O)O; Moc = COC(=O)*

B1: I-1794 (peptide)
peptide: Ac-[αAllylPro]D[tBuAla][B5(3)]DHAAF[hSer][PyrS2″][3Thi][Bta]Q-NH2
modifications: staple 1-4, 4-11; not fully specified; printed as Ac-PL3-Asp-Npg-B5-Asp-His-Ala-Ala-Phe-Hse-PyrS2-3Thi-BztA-Gln-NH2

Each binder was assayed against full-length beta-Catenin (Uniprot ID P35222) (Homo sapiens (Human)) (UniProt P35222) (assay: fluorescence polarization competition; 10 nM full-length beta-catenin, competitor 10 nM 5FAM-TCF4(10-53)).
Chain of full-length beta-Catenin (Uniprot ID P35222) (Homo sapiens (Human)) (P35222 whole entry): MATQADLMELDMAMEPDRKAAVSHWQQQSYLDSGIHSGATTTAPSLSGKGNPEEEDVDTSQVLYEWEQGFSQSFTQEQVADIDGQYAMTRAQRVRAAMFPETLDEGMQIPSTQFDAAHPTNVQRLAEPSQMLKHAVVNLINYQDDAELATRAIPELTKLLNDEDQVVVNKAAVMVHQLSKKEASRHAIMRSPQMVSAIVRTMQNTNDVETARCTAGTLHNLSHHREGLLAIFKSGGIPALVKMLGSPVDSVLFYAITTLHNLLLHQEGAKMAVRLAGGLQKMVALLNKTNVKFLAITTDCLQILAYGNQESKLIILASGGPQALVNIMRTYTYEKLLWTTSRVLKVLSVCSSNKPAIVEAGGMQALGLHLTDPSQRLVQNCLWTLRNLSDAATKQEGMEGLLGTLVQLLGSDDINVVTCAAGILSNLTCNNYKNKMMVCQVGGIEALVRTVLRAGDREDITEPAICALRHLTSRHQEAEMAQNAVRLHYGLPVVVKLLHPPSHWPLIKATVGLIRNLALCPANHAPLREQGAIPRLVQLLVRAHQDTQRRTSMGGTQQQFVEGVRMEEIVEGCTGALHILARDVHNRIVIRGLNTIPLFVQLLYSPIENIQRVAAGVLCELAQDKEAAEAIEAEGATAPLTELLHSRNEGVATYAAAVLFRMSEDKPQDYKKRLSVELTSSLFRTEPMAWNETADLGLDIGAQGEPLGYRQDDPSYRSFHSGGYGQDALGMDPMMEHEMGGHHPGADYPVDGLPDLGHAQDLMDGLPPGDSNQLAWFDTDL
Work on Ac-[αAllylPro]N[Cha][B5]DQ[hSer]AFL[PyrS2]F[Bta][MorphAsn]-NH2 (staple 1-4, 4-11) [I-2498] yielded an IC50 of 0.449 µM.
Work on Ac-[αAllylPro]DA[B5(4)]DDAA[2Nal]A[S8]F[Bta]Q-NH2 (staple 1-4, 4-11) [I-370] yielded an EC50 of 1.56 µM.
Ac-[αAllylPro]N[Cha][B5]DQTAFL[PyrS2]F[Bta][MorphAsn]-NH2 (staple 1-4, 4-11) [I-2503] was tested, and the IC50 was 1.31 µM.
For Ac-[αAllylPro]D[tBuAla][B5(18)]D[Phe(3-COOH)]AAFL[PyrS2(3)][Phe(2-Cl)][Bta]-NH2 (staple 1-4, 4-11) [I-1852], the IC50 was 0.048 µM.
Binder Ac-[αAllylPro]D[tBuAla][B5]NT[Aib]AF[MeAsn][PyrS2][3Thi][Bta]N-NH2 (staple 1-4, 4-11) [I-2497] has an IC50 of 0.105 µM.
For Ac-[αAllylPro]DA[B5(4)]DDAAFA[S8][Phe(2-Me)][Bta]Q-NH2 (staple 1-4, 4-11) [I-367], the EC50 was 0.177 µM.
Binder Ac-[αAllylPro]N[tBuAla][B5(18)]D[Phe(3-COOH)]AAFL[PyrS2(3)][Phe(2-Cl)][Bta]S-NH2 (staple 1-4, 4-11) [I-1853] has an IC50 of 0.114 µM.
Ac-[αAllylPro]D[tBuAla][B5(5)]D[TfeGA]AA[(MorphCH2)TriAzDap]L[PyrS2″][3Thi][Bta]Q-NH2 (staple 1-4, 4-11; also: separately listed staple isomer composition) [I-1858] showed an IC50 of 1.11 µM.
In the case of Ac-[αAllylPro]D[tBuAla][B5(4)]NT[Ac5c]AFN[PyrS2″][3Thi][Bta]Q-NH2 (staple 1-4, 4-11) [I-2493], the IC50 is reported as 0.267 µM.
Ac-[αAllylPro]N[Cha][B5]DQQAFL[PyrS2]F[Bta][MorphAsn]-NH2 (staple 1-4, 4-11) [I-2504] showed an IC50 of 0.21 µM.
For Ac-[αAllylPro]N[Cha][B5]DQ[MeGln]AFL[PyrS2]F[Bta][MorphAsn]-NH2 (staple 1-4, 4-11) [I-2502], the IC50 was 0.214 µM.
Ac-[αAllylPro]D[tBuAla][B5(5)]D[TfeGA]AA[(SO2MorphCH2)TriAzDap]L[PyrS2″][3Thi][Bta]Q-NH2 (staple 1-4, 4-11) [I-1860] showed an IC50 of 0.512 µM.
With Ac-[αAllylPro]N[Cha][B5]DQ[Me2Gln]AFL[PyrS2]F[Bta][MorphAsn]-NH2 (staple 1-4, 4-11) [I-2501] the IC50 was 0.154 µM.
Ac-[αAllylPro]DA[B5(4)]DDAAFA[S8][Phe(4-Me)][Bta]Q-NH2 (staple 1-4, 4-11) [I-369] was tested, and the EC50 was 2.31 µM.
For Ac-[αAllylPro]DA[B5(4)]DDAA[Phe(2-Me)]A[S8]F[Bta]Q-NH2 (staple 1-4, 4-11; also: later-eluting staple isomer) [I-366], the EC50 was 1.45 µM.
Binder Ac-[αAllylPro]D[tBuAla][B5]NT[Aib]AFN[PyrS2][3Thi][Bta][MeAsn]-NH2 (staple 1-4, 4-11) [I-2495] has an IC50 of 0.095 µM.
Work on Ac-[αAllylPro]D[tBuAla][B5]NT[Aib]AF[Me2Asn][PyrS2][3Thi][Bta]N-NH2 (staple 1-4, 4-11) [I-2496] yielded an IC50 of 0.106 µM.
For Ac-[αAllylPro]D[tBuAla][B5(4)]D[Phe(3-COOH)]QAFL[PyrS2″][Phe(2-CF3)][4ClBztA]A-NH2 (staple 1-4, 4-11; reading uncertain) [I-2491], the IC50 was 0.049 µM.
Ac-[αAllylPro]D[tBuAla][B5(4)]NT[Ac3c]AFN[PyrS2″][3Thi][Bta]Q-NH2 (staple 1-4, 4-11) [I-2492] gave an IC50 of 0.174 µM.
Ac-[αAllylPro]D[tBuAla][B5(5)]D[TfeGA]AA[(MorphCH2)TriAzDap]L[PyrS2″][3Thi][Bta]Q-NH2 (staple 1-4, 4-11; also: separately listed staple isomer composition) [I-1859] was tested, and the IC50 was 1.11 µM.
Ac-[αAllylPro]D[tBuAla][B5(4)]D[Phe(3-COOH)]QAFL[PyrS2″][Phe(2-CF3)][7FBztA]A-NH2 (staple 1-4, 4-11) [I-2489] was tested, and the IC50 was 0.029 µM.
Work on Ac-[αAllylPro]D[tBuAla][B5(18)]D[Phe(3-COOH)]AAFA[PyrS2(3)][Phe(2-Cl)][Bta]S-NH2 (staple 1-4, 4-11) [I-1849] yielded an IC50 of 0.019 µM.
Ac-[αAllylPro]D[tBuAla][B5(5)]D[TfeGA]AA[(CH2Ppz)TriAzDap]L[PyrS2″][3Thi][Bta]Q-NH2 (staple 1-4, 4-11; also: separately listed staple isomer composition) [I-1857] gave an IC50 of 4.03 µM.
In the case of Ac-[αAllylPro]D[tBuAla][B5(5)]D[TfeGA]AA[(CH2NMe2)TriAzDap]L[PyrS2″][3Thi][Bta]Q-NH2 (staple 1-4, 4-11; also: separately listed staple isomer composition) [I-1855], the IC50 is reported as 0.849 µM.
Ac-[αAllylPro]D[tBuAla][B6]D[Phe(3-COOH)]QAFL[PyrS][Phe(2-CF3)][Bta]A-NH2 (staple 1-4, 4-11; also: earlier-eluting staple isomer composition) [I-2506] showed an IC50 of 0.332 µM.
Ac-[αAllylPro]D[tBuAla][B5]NT[Aib]AFN[PyrS2][3Thi][Bta][Me2Asn]-NH2 (staple 1-4, 4-11) [I-2494] gave an IC50 of 0.102 µM.
Work on Ac-[αAllylPro]D[tBuAla][B5(4)]D[Phe(3-COOH)]QAFL[PyrS2″][Phe(2-CF3)][7ClBztA]A-NH2 (staple 1-4, 4-11) [I-2487] yielded an IC50 of 0.036 µM.
Ac-[αAllylPro]D[tBuAla][B5(18)]D[Phe(3-COOH)]AAFL[PyrS2(3)][Phe(2-Cl)][Bta]A-NH2 (staple 1-4, 4-11) [I-1851] showed an IC50 of 0.025 µM.
With Ac-[αAllylPro]D[tBuAla][B5(18)]D[Phe(3-COOH)]AAFV[PyrS2(3)][Phe(2-Cl)][Bta]S-NH2 (staple 1-4, 4-11) [I-1850] the IC50 was 0.017 µM.
Binder Ac-[αAllylPro]DA[B5(4)]DDAA[Phe(2-Me)]A[S8]F[Bta]Q-NH2 (staple 1-4, 4-11; also: earlier-eluting staple isomer) [I-365] has an EC50 of 2.71 µM.
Ac-[αAllylPro]D[tBuAla][B6]D[Phe(3-COOH)]QAFL[PyrS][Phe(2-CF3)][Bta]A-NH2 (staple 1-4, 4-11; also: later-eluting staple isomer composition) [I-2507] was tested, and the IC50 was 0.168 µM.

These binders were tested against full-length beta-Catenin (Uniprot ID P35222) (Homo sapiens (Human)) (UniProt P35222) (assay: fluorescence polarization competition against 5FAM-TCF4 10-53 on full-length beta-catenin).
For Butoxycarbonyl-[αAllylPro]D[tBuAla][B5(4)]DDAAFQ[PyrS2″][3Thi][Bta]H-NH2 (staple 1-4, 4-11) [I-2363], the IC50 was 0.044 µM.
Moc-[αAllylPro]D[tBuAla][B5(4)]DDAAFQ[PyrS2″][3Thi][Bta]H-NH2 (staple 1-4, 4-11) [I-2362] was tested, and the IC50 was 0.066 µM.
Isobutyloxycarbonyl-[αAllylPro]D[tBuAla][B5(4)]DDAAFQ[PyrS2″][3Thi][Bta]H-NH2 (staple 1-4, 4-11) [I-2364] showed an IC50 of 0.116 µM.
With B1 the IC50 was 0.052 µM.
With {3‑(allyloxy)benzoyl}-PD[tBuAla][B5(5)]D[TfeGA]AAFL[PyrS2″][3Thi][Bta]Q-NH2 (staple 4-11, N-4; also: -CH=CH- in each staple reduced to -CH2-CH2-) [I-2377] the IC50 was 0.978 µM.

What follows are binders tested against full-length beta-Catenin (Uniprot ID P35222) (Homo sapiens (Human)) (UniProt P35222) (assay: fluorescence polarization competition; peptide titrated against 10 nM full-length beta-catenin + 10 nM 5FAM-TCF4(10-53)).
With Ac-[αAllylPro]DA[B5(4)]DDAA[2Nal]A[S8]F[Bta]Q-NH2 (staple 1-4, 4-11) [I-370] the IC50 was 1.56 µM.
Ac-[αAllylPro]DA[B5(4)]DDAAFA[S8][Phe(2-Me)][Bta]Q-NH2 (staple 1-4, 4-11) [I-367] gave an IC50 of 0.177 µM.
For Ac-[αAllylPro]DA[B5(4)]DDAAFA[S8][Phe(4-Me)][Bta]Q-NH2 (staple 1-4, 4-11) [I-369], the IC50 was 2.31 µM.
Ac-[αAllylPro]DA[B5(4)]DDAA[Phe(2-Me)]A[S8]F[Bta]Q-NH2 (staple 1-4, 4-11; also: later-eluting staple isomer) [I-366] was tested, and the IC50 was 1.45 µM.
With Ac-[αAllylPro]DA[B5(4)]DDAA[Phe(2-Me)]A[S8]F[Bta]Q-NH2 (staple 1-4, 4-11; also: earlier-eluting staple isomer) [I-365] the IC50 was 2.71 µM.
